For data set [1], the target named is T1, AF647-p53 (p53-SNAP labeled with AF647) (human, UniProt P04637 1-393). Briefly: EMSA; complexes at low nM tetramer; EMSA: 25 mM HEPES pH 7.9, 50 mM KCl, 2.5 mM MgCl2, 1 mM EDTA, 10% glycerol, 0.1% NP-40, 1 mM DTT, 0.05 mg/mL BSA, room temp 30 min; TIRF: 25 mM Tris pH 7.9, 50. Conditions: protein: recombinant; tags: N-terminal His; C-terminal SNAP tag with AlexaFluor647; chain copies: 4; label: 5' 32P on reverse strand; blunt.

The target in data set [2] is T1, AF647-p53 (p53-SNAP labeled with AF647). In words: EMSA; sub-nM affinity, assuming tetramer; EMSA: 25 mM HEPES pH 7.9, 50 mM KCl, 2.5 mM MgCl2, 1 mM EDTA, 10% glycerol, 0.1% NP-40, 1 mM DTT, 0.05 mg/mL BSA, room temp 30 min; TIRF: 25 mM Tris pH 7.9, 50. Conditions: protein: recombinant; tags: N-terminal His; C-terminal SNAP tag with AlexaFluor647; chain copies: 4; label: 5' 32P on reverse strand; blunt. A general note: In EMSA bound probe runs differently from free probe, usually more slowly.

For data set [3] the target is unchanged. In words: single-molecule TIRF; apparent upper limit (<=), koff 1.0 s-1, kon(obs) 0.0188 s-1; EMSA: 25 mM HEPES pH 7.9, 50 mM KCl, 2.5 mM MgCl2, 1 mM EDTA, 10% glycerol, 0.1% NP-40, 1 mM DTT, 0.05 mg/mL BSA, room temp 30 min; TIRF: 25 mM Tris pH 7.9, 50. Conditions: protein: recombinant; tags: N-terminal His; C-terminal SNAP tag with AlexaFluor647; chain copies: 4; label: 5' biotin on forward strand; 5' AF647 on reverse strand; 5' overhang 24 nt and 3' overhang 1 nt on forward strand as printed.

T1 sequence (P04637 whole entry): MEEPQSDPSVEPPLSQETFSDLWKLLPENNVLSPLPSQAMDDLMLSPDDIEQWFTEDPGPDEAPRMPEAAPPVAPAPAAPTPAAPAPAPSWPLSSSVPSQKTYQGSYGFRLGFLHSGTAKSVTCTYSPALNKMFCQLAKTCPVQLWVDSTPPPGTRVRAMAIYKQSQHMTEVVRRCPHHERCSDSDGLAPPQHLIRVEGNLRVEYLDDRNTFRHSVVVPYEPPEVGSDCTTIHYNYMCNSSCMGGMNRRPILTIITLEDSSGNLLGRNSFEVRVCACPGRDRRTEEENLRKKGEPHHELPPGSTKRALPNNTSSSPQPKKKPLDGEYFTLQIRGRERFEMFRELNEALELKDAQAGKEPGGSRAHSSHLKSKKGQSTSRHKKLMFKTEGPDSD

B1: random DNA (EMSA) (dsDNA)
DNA 1: CGTTCCTAATCGGGTAGGGGCTGACACGAATA
DNA 2: TATTCGTGTCAGCCCCTACCCGATTAGGAACG
Regarding B1, the binding result in data set [1] is listed as “binds”.

B2: wild type DNA (EMSA) (dsDNA)
DNA 1: TAGAGCGAACATGTCTAAGCATGCTGGCGTCG
DNA 2: CGACGCCAGCATGCTTAGACATGTTCGCTCTA
B2: in data set [2], the Kd was less than 1 nM.

B3: mutant half site DNA (single molecule) (dsDNA)
DNA 1: CGCGTTCATGGTAGAGTCGTGGACTAGAGCGAACATGTCTTTCAAAGGCGGCGTCG
DNA 2: GACGCCGCCTTTGAAAGACATGTTCGCTCTA
As for B3, in data set [3], the Kd is less than 13 nM.

Values taken from article PMC7528078, “Single molecule studies reveal that p53 tetramers dynamically bind response elements containing one or two half sites”.
